In patent US20200339690A1 (JOUNCE THERAPEUTICS, published 2020):
Each block holds one binder with its values, some of them ahead of it.

Tests used:
human LILRB3 = molecular target: T1, human LILRB3 (human, UniProt O75022 24-631); experiment: flow cytometry, LILRB3 CHOs
T1 construct: Over-expressed on CHO-s cells; also called hLILRB3

[1] = molecular target: T2, Cyno Monocytes / Cyno Neutrophils (Macaca fascicularis); experiment: flow cytometry, cyno whole blood, monocytes
T2 construct: cell surface, primary blood cells; also called LILRB2+ populations in cyno whole blood

[2] = molecular target: T3, human LILRB2 expressed on cells (human, UniProt Q8N423 22-597); experiment: cell-based or functional assay
human LILRB5 = molecular target: T4, human LILRB5 (human, UniProt O75023 24-590); experiment: flow cytometry, LILRB5 CHOs
T4 construct: Over-expressed on CHO-s cells; also called hLILRB5

[3] = molecular target: T2, Cyno Monocytes / Cyno Neutrophils; experiment: flow cytometry, cyno whole blood, neutrophils
human LILRA4 = molecular target: T5, human LILRA4 (human, UniProt P59901 24-499); experiment: flow cytometry, LILRA4 CHOs
T5 construct: Over-expressed on CHO-s cells; also called hLILRA4

[4] = molecular target: T3, human LILRB2 expressed on cells; experiment: flow cytometry, LILRB2 CHOs
human LILRA2 = molecular target: T6, human LILRA2 (human, UniProt Q8N149 24-483); experiment: flow cytometry, LILRA2 CHOs
T6 construct: Over-expressed on CHO-s cells; also called hLILRA2

[5] = molecular target: T3, human LILRB2 expressed on cells; experiment: flow cytometry, human whole blood, monocytes
human LILRB1 = molecular target: T7, human LILRB1 (human, UniProt Q8NHL6 24-650); experiment: flow cytometry, LILRB1 CHOs
T7 construct: Over-expressed on CHO-s cells; also called hLILRB1

human LILRA3 = molecular target: T8, human LILRA3 (human, UniProt Q8N6C8 24-439); experiment: flow cytometry, LILRA3 CHOs
T8 construct: Over-expressed on CHO-s cells; also called hLILRA3

[6] = molecular target: T3, human LILRB2 expressed on cells; experiment: blocking of HLA-A2 tetramer on LILRB2 CHOs, flow cytometry, mAb 10 ug/mL
Experimental: (§1) In the secondary screen, 1×10⁵ CHO-s cells over-expressing human LILRB2 were plated in 96-well round-bottom tissue culture-treated plate and washed twice with 1×DPBS (Gibco) and incubated with 10 μg/mL primary antibody (anti-LILRB2 mAbs or control) prepared in 50 μL FACS buffer (1×DPBS containing 2% HI-FBS (Sigma)+0.05% Sodium Azide). After incubation with mAbs for 30 minutes at 4° C., cells were washed twice in FACS buffer and then resuspended in 50 μL of FACS buffer containing 5 μg/mL APC-conjugated HLA-A2 or HLA-G tetramer (Fred Hutch). Cells were incubated protected from light for 30-60 minutes at 4° C. After incubation with tetramer, cells were washed in FACS buffer and re-suspended in fix buffer (1.5% paraformaldehyde diluted in 1×DPBS). Samples were analyzed using the Celesta flow cytometer analyzer (BD Biosciences). Data represent percent tetramer blocked by mAbs relative to tetramer alone, calculated according to the following equation: […]

human LILRA6 = molecular target: T9, human LILRA6 (human, UniProt Q6PI73 24-481); experiment: flow cytometry, LILRA6 CHOs
T9 construct: Over-expressed on CHO-s cells; also called hLILRA6

[7] = molecular target: T10, Rhesus Monocytes / Rhesus Neutrophils (Macaca mulatta); experiment: flow cytometry, rhesus whole blood, monocytes
T10 construct: cell surface, primary blood cells; also called LILRB2+ populations in rhesus whole blood

human LILRB4 = molecular target: T11, human LILRB4 (human, UniProt Q8NHJ6 22-448); experiment: flow cytometry, LILRB4 CHOs
T11 construct: Over-expressed on CHO-s cells; also called hLILRB4

[8] = molecular target: T3, human LILRB2 expressed on cells; experiment: blocking of HLA-G tetramer on LILRB2 CHOs, flow cytometry, mAb 10 ug/mL
Experimental: as §1

human LILRA5 = molecular target: T12, human LILRA5 (human, UniProt A6NI73 42-299); experiment: flow cytometry, LILRA5 CHOs
T12 construct: Over-expressed on CHO-s cells; also called hLILRA5

[9] = molecular target: T10, Rhesus Monocytes / Rhesus Neutrophils; experiment: flow cytometry, rhesus whole blood, neutrophils
[10] = molecular target: T3, human LILRB2 expressed on cells; experiment: flow cytometry, human whole blood, neutrophils
human LILRB2-His = human LILRB2-His (human, UniProt Q8N423 22-460); experiment: SPR, Sierra Sensors MASS-2; antibody captured on anti-human Fc, LILRB2-His 65 to 0.27 nM, 1:1 Langmuir fit
Experimental: Using a Mass-2 (Sierra Sensors) high capacity amine chip preimmobilized with AffiniPure Goat Anti-Human IgG, Fcγ Fragment Specific antibody, humanized antibodies were captured on the anti-human surface and then binding to human LILRB2-His was measured by flowing six different concentrations from 65 to 0.27 nM of the analyte over the antibody surface. The anti-LILRB2 surface was removed (10 mM Glycine, pH 2.0) and recaptured between all concentrations or buffer only cycles. The data was analyzed using the Sierra Analyzer software (version 3.1.14). All curves were double subtracted and fit to a 1:1 Langmuir Fit.

human LILRA1 = molecular target: T13, human LILRA1 (human, UniProt O75019 17-489); experiment: flow cytometry, LILRA1 CHOs
T13 construct: Over-expressed on CHO-s cells; also called hLILRA1
T13 sequence (O75019 17-489 limits assumed): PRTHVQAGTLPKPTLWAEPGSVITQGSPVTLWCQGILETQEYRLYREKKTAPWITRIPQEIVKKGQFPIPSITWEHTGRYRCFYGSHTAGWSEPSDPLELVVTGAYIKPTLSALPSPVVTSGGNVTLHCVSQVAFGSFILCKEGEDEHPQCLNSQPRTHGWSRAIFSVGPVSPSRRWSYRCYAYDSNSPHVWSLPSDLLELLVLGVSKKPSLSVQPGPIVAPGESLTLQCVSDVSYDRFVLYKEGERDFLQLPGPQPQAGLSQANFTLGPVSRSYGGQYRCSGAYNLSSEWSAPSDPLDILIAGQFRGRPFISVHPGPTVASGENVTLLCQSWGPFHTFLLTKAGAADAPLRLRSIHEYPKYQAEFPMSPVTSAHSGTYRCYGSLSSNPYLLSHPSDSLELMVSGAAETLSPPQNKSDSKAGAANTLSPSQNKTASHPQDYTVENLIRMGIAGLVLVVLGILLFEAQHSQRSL

Chain of human LILRB2-His (Q8N423 other isoform, or with tags, fused parts or gaps): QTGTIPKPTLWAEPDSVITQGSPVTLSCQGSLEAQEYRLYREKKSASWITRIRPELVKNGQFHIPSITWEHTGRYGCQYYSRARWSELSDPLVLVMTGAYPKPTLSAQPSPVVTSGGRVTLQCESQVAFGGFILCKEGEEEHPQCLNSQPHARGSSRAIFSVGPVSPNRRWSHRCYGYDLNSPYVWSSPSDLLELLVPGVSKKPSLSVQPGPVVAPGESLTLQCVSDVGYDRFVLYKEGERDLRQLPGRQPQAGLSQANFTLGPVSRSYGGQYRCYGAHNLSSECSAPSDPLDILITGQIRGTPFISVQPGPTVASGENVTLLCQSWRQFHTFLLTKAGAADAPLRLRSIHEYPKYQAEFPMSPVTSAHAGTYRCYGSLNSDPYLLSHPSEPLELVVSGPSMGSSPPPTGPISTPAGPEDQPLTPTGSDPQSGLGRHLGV
T5 sequence (P59901 other isoform, or with tags, fused parts or gaps limits assumed): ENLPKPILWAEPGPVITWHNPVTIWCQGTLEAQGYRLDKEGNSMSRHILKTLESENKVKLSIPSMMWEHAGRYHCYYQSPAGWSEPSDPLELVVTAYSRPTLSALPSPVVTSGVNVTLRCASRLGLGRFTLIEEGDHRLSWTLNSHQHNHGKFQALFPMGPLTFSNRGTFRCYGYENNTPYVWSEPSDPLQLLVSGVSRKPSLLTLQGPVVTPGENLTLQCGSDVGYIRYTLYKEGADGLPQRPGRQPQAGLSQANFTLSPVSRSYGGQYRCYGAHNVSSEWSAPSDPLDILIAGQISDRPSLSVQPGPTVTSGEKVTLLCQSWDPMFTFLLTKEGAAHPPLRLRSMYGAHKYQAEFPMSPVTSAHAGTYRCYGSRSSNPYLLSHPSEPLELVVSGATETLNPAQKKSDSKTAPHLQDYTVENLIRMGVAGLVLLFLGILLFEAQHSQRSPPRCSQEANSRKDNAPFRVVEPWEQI
T12 sequence (A6NI73 42-299 limits assumed): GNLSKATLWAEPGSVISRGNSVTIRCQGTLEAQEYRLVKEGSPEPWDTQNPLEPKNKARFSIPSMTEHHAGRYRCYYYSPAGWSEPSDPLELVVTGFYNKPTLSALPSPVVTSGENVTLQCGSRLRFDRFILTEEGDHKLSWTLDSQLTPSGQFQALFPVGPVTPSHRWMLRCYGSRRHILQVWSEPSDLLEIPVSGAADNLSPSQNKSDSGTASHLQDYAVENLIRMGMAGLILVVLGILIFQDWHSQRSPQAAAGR
T9 sequence (Q6PI73 24-481 limits assumed): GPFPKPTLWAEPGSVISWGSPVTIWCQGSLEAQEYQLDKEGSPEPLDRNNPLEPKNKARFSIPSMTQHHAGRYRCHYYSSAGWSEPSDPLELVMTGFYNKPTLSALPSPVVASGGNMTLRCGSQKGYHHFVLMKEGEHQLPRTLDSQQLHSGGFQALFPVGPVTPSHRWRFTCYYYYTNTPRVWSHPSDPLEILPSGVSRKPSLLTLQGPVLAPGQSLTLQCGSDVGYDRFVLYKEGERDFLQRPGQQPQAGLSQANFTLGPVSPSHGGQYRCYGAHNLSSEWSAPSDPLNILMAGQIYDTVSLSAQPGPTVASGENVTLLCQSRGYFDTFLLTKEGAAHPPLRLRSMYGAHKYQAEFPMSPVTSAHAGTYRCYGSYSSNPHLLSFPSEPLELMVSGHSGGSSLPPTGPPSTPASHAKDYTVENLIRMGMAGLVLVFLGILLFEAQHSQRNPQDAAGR
T4 sequence (O75023 24-590 P542R limits assumed): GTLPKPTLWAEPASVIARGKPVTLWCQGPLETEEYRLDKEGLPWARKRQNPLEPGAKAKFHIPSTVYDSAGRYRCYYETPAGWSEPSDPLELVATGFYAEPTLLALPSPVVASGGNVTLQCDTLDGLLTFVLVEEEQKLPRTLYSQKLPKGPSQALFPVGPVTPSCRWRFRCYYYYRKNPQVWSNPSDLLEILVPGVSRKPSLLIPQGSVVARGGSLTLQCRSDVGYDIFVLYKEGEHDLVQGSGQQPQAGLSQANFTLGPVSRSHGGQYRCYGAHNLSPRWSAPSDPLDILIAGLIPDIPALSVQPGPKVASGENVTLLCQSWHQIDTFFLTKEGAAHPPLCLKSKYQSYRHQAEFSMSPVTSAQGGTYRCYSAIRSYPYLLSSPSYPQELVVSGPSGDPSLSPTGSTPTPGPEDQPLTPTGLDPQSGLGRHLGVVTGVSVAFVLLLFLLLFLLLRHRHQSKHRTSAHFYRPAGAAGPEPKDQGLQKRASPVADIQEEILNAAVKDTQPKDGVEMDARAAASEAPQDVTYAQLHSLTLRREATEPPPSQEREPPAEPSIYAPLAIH
T6 sequence (Q8N149 24-483 S135L limits assumed): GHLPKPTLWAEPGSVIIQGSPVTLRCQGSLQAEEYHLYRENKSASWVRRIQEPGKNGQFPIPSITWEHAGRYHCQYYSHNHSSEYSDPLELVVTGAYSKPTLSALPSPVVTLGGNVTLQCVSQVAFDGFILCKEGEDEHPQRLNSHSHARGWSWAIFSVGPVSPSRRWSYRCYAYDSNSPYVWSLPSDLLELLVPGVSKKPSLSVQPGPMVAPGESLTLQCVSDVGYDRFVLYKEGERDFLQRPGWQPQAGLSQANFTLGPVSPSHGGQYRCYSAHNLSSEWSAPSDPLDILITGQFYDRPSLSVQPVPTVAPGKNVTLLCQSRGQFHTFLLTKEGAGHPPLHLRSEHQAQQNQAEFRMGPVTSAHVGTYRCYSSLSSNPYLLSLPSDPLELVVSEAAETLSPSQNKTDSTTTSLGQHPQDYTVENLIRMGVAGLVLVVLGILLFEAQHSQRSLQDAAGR
T7 sequence (Q8NHL6 24-650 limits assumed): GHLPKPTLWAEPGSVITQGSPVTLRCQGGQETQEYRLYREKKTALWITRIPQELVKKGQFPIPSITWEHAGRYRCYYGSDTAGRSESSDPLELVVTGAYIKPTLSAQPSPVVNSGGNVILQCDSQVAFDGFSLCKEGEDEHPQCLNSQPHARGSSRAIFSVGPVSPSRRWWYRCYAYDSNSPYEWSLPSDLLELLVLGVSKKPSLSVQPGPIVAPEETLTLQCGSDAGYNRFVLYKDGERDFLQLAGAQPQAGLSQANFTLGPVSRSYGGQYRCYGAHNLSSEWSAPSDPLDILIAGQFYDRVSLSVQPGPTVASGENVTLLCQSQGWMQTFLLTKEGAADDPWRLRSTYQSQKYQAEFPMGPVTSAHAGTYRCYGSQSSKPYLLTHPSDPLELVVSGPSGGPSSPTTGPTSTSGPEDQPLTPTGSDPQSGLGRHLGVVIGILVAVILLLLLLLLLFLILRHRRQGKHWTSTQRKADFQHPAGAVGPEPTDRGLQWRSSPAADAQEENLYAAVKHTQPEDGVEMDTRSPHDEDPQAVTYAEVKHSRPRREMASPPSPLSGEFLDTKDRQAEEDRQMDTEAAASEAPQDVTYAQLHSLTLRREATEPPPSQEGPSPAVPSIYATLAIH
T8 sequence (Q8N6C8 24-439 limits assumed): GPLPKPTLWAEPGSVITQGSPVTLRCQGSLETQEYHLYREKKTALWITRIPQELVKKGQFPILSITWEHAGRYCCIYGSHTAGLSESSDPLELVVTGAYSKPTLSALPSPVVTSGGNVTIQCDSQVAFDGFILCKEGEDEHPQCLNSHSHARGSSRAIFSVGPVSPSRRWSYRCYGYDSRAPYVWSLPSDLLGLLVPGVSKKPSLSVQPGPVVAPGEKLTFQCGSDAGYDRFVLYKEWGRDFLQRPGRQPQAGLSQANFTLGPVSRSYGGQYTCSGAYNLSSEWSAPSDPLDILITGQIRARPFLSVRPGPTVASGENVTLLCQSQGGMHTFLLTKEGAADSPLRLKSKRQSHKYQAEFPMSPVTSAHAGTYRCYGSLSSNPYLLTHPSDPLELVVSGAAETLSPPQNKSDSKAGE
T3 sequence (Q8N423 other isoform, or with tags, fused parts or gaps limits assumed): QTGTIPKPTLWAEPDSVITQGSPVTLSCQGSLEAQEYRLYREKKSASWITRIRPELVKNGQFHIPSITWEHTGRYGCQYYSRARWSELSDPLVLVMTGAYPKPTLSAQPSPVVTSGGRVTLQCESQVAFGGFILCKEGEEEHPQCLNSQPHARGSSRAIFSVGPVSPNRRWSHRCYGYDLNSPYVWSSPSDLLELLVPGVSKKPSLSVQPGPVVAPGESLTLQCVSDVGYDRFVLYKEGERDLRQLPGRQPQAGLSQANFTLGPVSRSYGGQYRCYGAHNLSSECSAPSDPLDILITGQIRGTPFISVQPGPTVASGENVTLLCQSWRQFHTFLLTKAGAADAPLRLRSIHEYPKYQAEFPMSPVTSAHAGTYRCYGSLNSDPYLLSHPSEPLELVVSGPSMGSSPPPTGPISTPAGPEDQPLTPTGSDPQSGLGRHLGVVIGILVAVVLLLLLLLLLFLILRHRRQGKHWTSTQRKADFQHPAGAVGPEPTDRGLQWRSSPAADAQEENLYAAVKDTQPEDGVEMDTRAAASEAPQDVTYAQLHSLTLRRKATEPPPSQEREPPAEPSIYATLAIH

binding (fold over iso) (human LILRB3): 0.99 fold over iso
binding result (human LILRB3): no binding
Cyno Monocytes binding (fold over iso) [1]: 0.92 fold over iso
CCL2 production (fold over LPS alone) [2]: 1.85 fold over LPS alone
IL-6 production (fold over LPS alone) [2]: 2.57 fold over LPS alone
IL-10 production (fold over LPS alone) [2]: 0.89 fold over LPS alone
TNFa production (fold over LPS alone) [2]: 8.12 fold over LPS alone
binding (fold over iso) (human LILRB5): 1.03 fold over iso
binding result (human LILRB5): no binding
Cyno Neutrophils binding (fold over iso) [3]: 0.87 fold over iso
binding (fold over iso) (human LILRA4): -36.5 fold over iso
binding result (human LILRA4): no binding
binding (fold over iso) [4]: 3.68 fold over iso
binding (fold over iso) (human LILRA2): -1.05 fold over iso
binding result (human LILRA2): no binding
Human Monocytes binding (fold over iso) [5]: 11.3 fold over iso
binding (fold over iso) (human LILRB1): 1.05 fold over iso
binding result (human LILRB1): no binding
binding (fold over iso) (human LILRA3): 1.35 fold over iso
binding result (human LILRA3): no binding
HLA-A2:LILRB2 CHOs blocking (% blocked) [6]: 93.4 % blocked
binding (fold over iso) (human LILRA6): 0.94 fold over iso
binding result (human LILRA6): no binding
Rhesus Monocytes binding (fold over iso) [7]: 1.41 fold over iso
binding (fold over iso) (human LILRB4): 1 fold over iso
binding result (human LILRB4): no binding
HLA-G:LILRB2 CHOs blocking (% blocked) [8]: 96.6 % blocked
binding (fold over iso) (human LILRA5): 0.82 fold over iso
binding result (human LILRA5): no binding
Rhesus Neutrophils binding (fold over iso) [9]: 1.44 fold over iso
Human Neutrophils binding (fold over iso) [10]: 4.55 fold over iso
Kd (human LILRB2-His): 2.85 nM
kon (human LILRB2-His): 1.56e+06 M⁻¹ s⁻¹
B1: J-17 (antibody, human IgG4 S228P, kappa, V domains shown)
VH: QIQLVQSGPELKKPGETVKISCKASGYTFTTYGLSWVKQTPGKGLKWMGWINTYSGVPTYTDDFKGRFAFSLETSASTAYLQINNLKNEDTATYFCARPYDFDQVGFAYWGQGTLVTVSA
VL: SIVMTQTPKFLLVSAGDRVSITCKASQTVSSDVAWYQQKAGQSPKLLIYYASNRYTGVPDRFTGSGYGTDFTFTISTVQAEDLAVYFCQQDYSSPFTFGGGSKLEIKR
notes: Human IgG4 chimera of murine origin; also called J-17.h

binding (fold over iso) (human LILRB3): 1.09 fold over iso
binding result (human LILRB3): no binding
Cyno Monocytes binding (fold over iso) [1]: 17.9 fold over iso
CCL2 production (fold over LPS alone) [2]: 1.69 fold over LPS alone
IL-6 production (fold over LPS alone) [2]: 2.72 fold over LPS alone
IL-10 production (fold over LPS alone) [2]: 0.8 fold over LPS alone
TNFa production (fold over LPS alone) [2]: 8.9 fold over LPS alone
binding (fold over iso) (human LILRB5): 1.19 fold over iso
binding result (human LILRB5): no binding
Cyno Neutrophils binding (fold over iso) [3]: 2.35 fold over iso
binding (fold over iso) (human LILRA4): -26.8 fold over iso
binding result (human LILRA4): no binding
binding (fold over iso) [4]: 3.78 fold over iso
binding (fold over iso) (human LILRA2): -0.51 fold over iso
binding result (human LILRA2): no binding
Human Monocytes binding (fold over iso) [5]: 12.3 fold over iso
binding (fold over iso) (human LILRB1): 1.05 fold over iso
binding result (human LILRB1): no binding
binding (fold over iso) (human LILRA3): 0.97 fold over iso
binding result (human LILRA3): no binding
HLA-A2:LILRB2 CHOs blocking (% blocked) [6]: 95.3 % blocked
binding (fold over iso) (human LILRA6): 1.07 fold over iso
binding result (human LILRA6): no binding
Rhesus Monocytes binding (fold over iso) [7]: 6.79 fold over iso
binding (fold over iso) (human LILRB4): 1.03 fold over iso
binding result (human LILRB4): no binding
HLA-G:LILRB2 CHOs blocking (% blocked) [8]: 97 % blocked
binding (fold over iso) (human LILRA5): -0.62 fold over iso
binding result (human LILRA5): no binding
Rhesus Neutrophils binding (fold over iso) [9]: 21.9 fold over iso
Human Neutrophils binding (fold over iso) [10]: 4.5 fold over iso
Kd (human LILRB2-His): 2.62 nM
koff (human LILRB2-His): 0.00135 s⁻¹
kon (human LILRB2-His): 515000 M⁻¹ s⁻¹
binding (fold over iso) (human LILRA1): -3.31 fold over iso
binding result (human LILRA1): no binding
B2: J-19 (antibody, human IgG4 S228P, kappa, V domains shown)
VH: QVTLKESGPGILQPSHTLSLTCSFSGFSLNTYAMGVSWIRQPSGKGLEWLASIWWNGNKYNNPSLKSRLTVSKDTSNNQAFLKVTSVDTADTATYYCAHSRIIRFTDYVMDAWGQGASVTVSS
VL: DIQMTQSPASLSTFLGEPVTIECRASEDIYNDLAWYQQKPGKSPQLLIYNANSLHTGVPSRFSGSGSGTQYSLKINSLQSEDVASYFCQQYYDYPLTFGSGTKLEIKR
notes: Human IgG4 chimera from a rat immunization; also called J-19.h

binding (fold over iso) (human LILRB3): 1.09 fold over iso
binding result (human LILRB3): no binding
Cyno Monocytes binding (fold over iso) [1]: 0.71 fold over iso
CCL2 production (fold over LPS alone) [2]: 0.96 fold over LPS alone
IL-6 production (fold over LPS alone) [2]: 3.06 fold over LPS alone
IL-10 production (fold over LPS alone) [2]: 0.81 fold over LPS alone
TNFa production (fold over LPS alone) [2]: 7.61 fold over LPS alone
binding (fold over iso) (human LILRB5): 1.22 fold over iso
binding result (human LILRB5): no binding
Cyno Neutrophils binding (fold over iso) [3]: 0.94 fold over iso
binding (fold over iso) (human LILRA4): -1.27 fold over iso
binding result (human LILRA4): no binding
binding (fold over iso) [4]: 3.49 fold over iso
binding (fold over iso) (human LILRA2): -2.52 fold over iso
binding result (human LILRA2): no binding
Human Monocytes binding (fold over iso) [5]: 8.54 fold over iso
binding (fold over iso) (human LILRB1): 1.07 fold over iso
binding result (human LILRB1): no binding
binding (fold over iso) (human LILRA3): 1.02 fold over iso
binding result (human LILRA3): no binding
HLA-A2:LILRB2 CHOs blocking (% blocked) [6]: 94.4 % blocked
binding (fold over iso) (human LILRA6): 1 fold over iso
binding result (human LILRA6): no binding
Rhesus Monocytes binding (fold over iso) [7]: 0.88 fold over iso
binding (fold over iso) (human LILRB4): 1.03 fold over iso
binding result (human LILRB4): no binding
HLA-G:LILRB2 CHOs blocking (% blocked) [8]: 99.9 % blocked
binding (fold over iso) (human LILRA5): 1.34 fold over iso
binding result (human LILRA5): no binding
Rhesus Neutrophils binding (fold over iso) [9]: 0.64 fold over iso
Human Neutrophils binding (fold over iso) [10]: 2.89 fold over iso
Kd (human LILRB2-His): 2.47 nM
koff (human LILRB2-His): 0.000913 s⁻¹
kon (human LILRB2-His): 370000 M⁻¹ s⁻¹
binding (fold over iso) (human LILRA1): -1.63 fold over iso
binding result (human LILRA1): no binding
B3: J-11 (antibody, human IgG4 S228P, kappa, V domains shown)
VH: QVQLQQSGAELMKPGASVKLSCKATGYILTGYWIEWVKQRPGHGLEWIGEILPGSGSTNYNENFKGKATFTADTSSNTAYMQLSSLTTEDSAIYYCARAVLGYFDYWGQGTTLTVSS
VL: DIVMTQSHKFMSTSVGDRVSITCKASQDVSTAVAWYQQKPGQSPKLLIYWASTRHTGVPDRFTGSGSGTDYTLTISSVQAEDLALYYCHQHYSTYTFGGGTKLEIKR
notes: Human IgG4 chimera of murine origin; also called J-11.h
